Results on 91 sequences are retold here after the supplement of paper PMC9112550, “Optimization of the antimicrobial peptide Bac7 by deep mutational scanning” (BMC Biology, 2022).
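Also: peptides expressed intracellularly from a pBAD plasmid library in pooled LB shake-flask culture, induced with 0.3% L-arabinose, DNA abundance read by NGS, three biological replicates, DESeq2 with apeglm shrinkage.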

In this series the test system is Escherichia coli TOP10. Kind of series: shrunken log2 fold change of peptide-encoding DNA abundance (4.5 h post-induction vs induction); higher = less antimicrobial activity (less host growth inhibition). The following applies: time post-induction: 4.5 h; library: site-saturation at positions 5, 18, 19, 20.
Turning to RRIRNRPPRLPRPRPRPKNQPRP, the “shrunken log2 fold change” value is -0.54.
RRIRTRPPRLPRPRPRPNEDPRP: the “shrunken log2 fold change” value was -0.0528.
Turning to RRIRRRPPRLPRPRPRPFIGPRP, the “shrunken log2 fold change” value is -0.25.
On to RRIRARPPRLPRPRPRPDCMPRP, for which the “shrunken log2 fold change” value is 0.386.
For RRIRRRPPRLPRPRPRPGRVPRP, the “shrunken log2 fold change” value amounted to 0.593.
Regarding RRIRYRPPRLPRPRPRPGENPRP, the “shrunken log2 fold change” value came to 0.00408.
Regarding RRIRWRPPRLPRPRPRPKHKPRP, the “shrunken log2 fold change” value stood at 0.0536.
In the case of RRIRQRPPRLPRPRPRPPMFPRP, the “shrunken log2 fold change” value was -0.325.
On to RRIRFRPPRLPRPRPRPENHPRP, for which the “shrunken log2 fold change” value was -0.84.
With RRIRARPPRLPRPRPRPKAPPRP the figure was 0.56.
With RRIRYRPPRLPRPRPRPKQYPRP the figure was -0.409.
As to RRIRHRPPRLPRPRPRPRDWPRP, the “shrunken log2 fold change” value was found to be 0.645.
In the case of RRIRQRPPRLPRPRPRPHPYPRP, the “shrunken log2 fold change” value is -0.0131.
As to RRIRMRPPRLPRPRPRPIFQPRP, the “shrunken log2 fold change” value was -0.115.
Regarding RRIRVRPPRLPRPRPRPFYQPRP, the “shrunken log2 fold change” value is -0.537.
For RRIRVRPPRLPRPRPRPDKLPRP, the “shrunken log2 fold change” value was -0.0511.
Turning to RRIRVRPPRLPRPRPRPMEWPRP, the “shrunken log2 fold change” value is -0.125.
With RRIRMRPPRLPRPRPRPFQNPRP, the “shrunken log2 fold change” value stood at 2.76.
On to RRIRERPPRLPRPRPRPAQAPRP, for which the “shrunken log2 fold change” value was 0.073.
Turning to RRIRTRPPRLPRPRPRPYGNPRP, the “shrunken log2 fold change” value was -0.0638.
Turning to RRIRHRPPRLPRPRPRPDDCPRP, the “shrunken log2 fold change” value was -0.00674.
In the case of RRIRCRPPRLPRPRPRPAKTPRP, the “shrunken log2 fold change” value is -0.0664.
As for RRIRGRPPRLPRPRPRPFPIPRP, the “shrunken log2 fold change” value amounted to 0.21.
Consider RRIRSRPPRLPRPRPRPQKKPRP, for which the “shrunken log2 fold change” value was -0.0597.
On to RRIRHRPPRLPRPRPRPLGQPRP, for which the “shrunken log2 fold change” value is 0.0866.
RRIRPRPPRLPRPRPRPGLAPRP: the “shrunken log2 fold change” value was 0.841.
As for RRIRLRPPRLPRPRPRPKGSPRP, the “shrunken log2 fold change” value was -0.0276.
RRIRLRPPRLPRPRPRPHFFPRP: the “shrunken log2 fold change” value is -0.128.
With RRIRMRPPRLPRPRPRPLLVPRP, the “shrunken log2 fold change” value was found to be 0.199.
As to RRIRYRPPRLPRPRPRPWIRPRP, the “shrunken log2 fold change” value was -0.371.
Take RRIRNRPPRLPRPRPRPDTRPRP: the “shrunken log2 fold change” value was -0.111.
Consider RRIRPRPPRLPRPRPRPIAFPRP, for which the “shrunken log2 fold change” value is -0.00102.
Turning to RRIRGRPPRLPRPRPRPKTIPRP, the “shrunken log2 fold change” value came to 0.445.
In the case of RRIRARPPRLPRPRPRPRQRPRP, the “shrunken log2 fold change” value amounted to 1.13.
In the case of RRIRARPPRLPRPRPRPDELPRP it was 0.63.
Regarding RRIRWRPPRLPRPRPRPAYTPRP, the “shrunken log2 fold change” value stood at 0.0906.
With RRIRTRPPRLPRPRPRPLTSPRP the figure was -0.255; with RRIRNRPPRLPRPRPRPAVWPRP, 0.583.
With RRIRARPPRLPRPRPRPSRYPRP the figure was 0.0768; with RRIRFRPPRLPRPRPRPCHMPRP, -0.285.
With RRIRLRPPRLPRPRPRPFLMPRP, the “shrunken log2 fold change” value is -0.551.
In the case of RRIRVRPPRLPRPRPRPKSYPRP, the “shrunken log2 fold change” value is -0.425.
With RRIRMRPPRLPRPRPRPFQLPRP the figure was 0.118; with RRIRKRPPRLPRPRPRPFAPPRP, 0.792; with RRIRNRPPRLPRPRPRPMKVPRP, 0.0279.
For RRIRERPPRLPRPRPRPETFPRP, the “shrunken log2 fold change” value is -0.0158.
In the case of RRIRQRPPRLPRPRPRPRNTPRP, the “shrunken log2 fold change” value was -0.00635.
Regarding RRIRARPPRLPRPRPRPLHDPRP, the “shrunken log2 fold change” value came to 0.341.
Turning to RRIRIRPPRLPRPRPRPMHMPRP, the “shrunken log2 fold change” value was -0.0247.
RRIRRRPPRLPRPRPRPYMEPRP: the “shrunken log2 fold change” value is -0.0924.
On to RRIRDRPPRLPRPRPRPCDHPRP, for which the “shrunken log2 fold change” value is -0.0216.
With RRIRLRPPRLPRPRPRPEDSPRP, the “shrunken log2 fold change” value was -0.0351.
As for RRIRLRPPRLPRPRPRPCYIPRP, the “shrunken log2 fold change” value is -0.115.
In the case of RRIRIRPPRLPRPRPRPYPTPRP it was -0.159; in that of RRIRKRPPRLPRPRPRPTFLPRP, 0.228.
Turning to RRIRGRPPRLPRPRPRPHMPPRP, the “shrunken log2 fold change” value is -0.0535.
As to RRIRIRPPRLPRPRPRPGRTPRP, the “shrunken log2 fold change” value came to 0.0928.
In the case of RRIRCRPPRLPRPRPRPYIWPRP, the “shrunken log2 fold change” value was -0.0216.
As for RRIRIRPPRLPRPRPRPKADPRP, the “shrunken log2 fold change” value was determined as 0.204.
On to RRIRNRPPRLPRPRPRPFGQPRP, for which the “shrunken log2 fold change” value is -0.282.
In the case of RRIRRRPPRLPRPRPRPQTGPRP it was 0.0354.
In the case of RRIRPRPPRLPRPRPRPYMNPRP it was -1.01.
In the case of RRIRTRPPRLPRPRPRPPILPRP, the “shrunken log2 fold change” value is 0.112.
For the sequence RRIRQRPPRLPRPRPRPMPFPRP, the “shrunken log2 fold change” value was -0.0697.
RRIRWRPPRLPRPRPRPGGSPRP: the “shrunken log2 fold change” value came to 0.341.
For RRIRYRPPRLPRPRPRPREMPRP, the “shrunken log2 fold change” value was -0.126.
Regarding RRIRTRPPRLPRPRPRPCHVPRP, the “shrunken log2 fold change” value is -0.114.
For RRIRYRPPRLPRPRPRPIQCPRP, the “shrunken log2 fold change” value is -0.0422.
Take RRIRLRPPRLPRPRPRPCYSPRP: the “shrunken log2 fold change” value is -0.142.
For the sequence RRIRDRPPRLPRPRPRPSEAPRP, the “shrunken log2 fold change” value was 0.0437.
Regarding RRIRRRPPRLPRPRPRPIWQPRP, the “shrunken log2 fold change” value was 0.0175.
In the case of RRIRHRPPRLPRPRPRPWHKPRP it was -0.113; in that of RRIRARPPRLPRPRPRPDWIPRP, -0.0382.
In the case of RRIRTRPPRLPRPRPRPFDHPRP it was -0.301.
Take RRIRHRPPRLPRPRPRPRDNPRP: the “shrunken log2 fold change” value is 0.0766.
As to RRIRMRPPRLPRPRPRPWNDPRP, the “shrunken log2 fold change” value was -0.112.
For the sequence RRIRGRPPRLPRPRPRPMCIPRP, the “shrunken log2 fold change” value worked out at 0.166.
For RRIRRRPPRLPRPRPRPLAWPRP, the “shrunken log2 fold change” value worked out at 0.226.
With RRIRRRPPRLPRPRPRPKPTPRP, the “shrunken log2 fold change” value turned out to be 0.426.
Take RRIRDRPPRLPRPRPRPGQHPRP: the “shrunken log2 fold change” value is -0.121.
As for RRIRVRPPRLPRPRPRPNWFPRP, the “shrunken log2 fold change” value was determined as 0.0817.
For the sequence RRIRMRPPRLPRPRPRPITWPRP, the “shrunken log2 fold change” value was -0.327.
As to RRIRQRPPRLPRPRPRPWLFPRP, the “shrunken log2 fold change” value was determined as 0.0523.
With RRIRYRPPRLPRPRPRPDTHPRP, the “shrunken log2 fold change” value was -0.22.
As to RRIRNRPPRLPRPRPRPVDNPRP, the “shrunken log2 fold change” value stood at 0.104.
RRIRFRPPRLPRPRPRPMGHPRP: the “shrunken log2 fold change” value was -0.184.
With RRIRIRPPRLPRPRPRPSPCPRP the figure was -0.761; with RRIRFRPPRLPRPRPRPVINPRP, -0.816.
With RRIRPRPPRLPRPRPRPGDMPRP, the “shrunken log2 fold change” value turned out to be 0.00271.
Consider RRIRFRPPRLPRPRPRPYICPRP, for which the “shrunken log2 fold change” value is -0.4.
As to RRIRCRPPRLPRPRPRPPWDPRP, the “shrunken log2 fold change” value worked out at 0.526.
